Experiments:
human TNF = biological target: T1, human TNF (human, UniProt P01375 77-233); test: binding assay of FIG. 12(a) Panel B
T1 construct: also called huTNF

[1] = biological target: T2, canine tumour necrosis factor alpha (canine, UniProt P51742 77-233); test: binding assay of FIG. 12(a) Panel C, compared with the D2E7 based MAbs
T2 construct: Coated at 5 ug/ml in the ELISA; used at 1 ng/mL in the reporter assay; also called canine TNF; canine TNFa

[2] = biological target: T2, canine tumour necrosis factor alpha; test: ELISA, canine TNFa coated, antibody 5 ug/ml to 0.05 ug/ml
Description: The resultant supernatants were purified on Protein A, analysed by SDS-PAGE (FIG. 10A) and tested for binding to canine TNFa (coated at 5 ug/ml; R&D systems) at the indicated concentrations of antibody (ug/ml) by ELISA and detected using anti-canine polyclonal antibody-horseradish peroxidase conjugate (Sigma A9042) (FIG. 10B). The negative control was the detection polyclonal on coated antigen alone.

T2 sequence (P51742 77-233 limits assumed): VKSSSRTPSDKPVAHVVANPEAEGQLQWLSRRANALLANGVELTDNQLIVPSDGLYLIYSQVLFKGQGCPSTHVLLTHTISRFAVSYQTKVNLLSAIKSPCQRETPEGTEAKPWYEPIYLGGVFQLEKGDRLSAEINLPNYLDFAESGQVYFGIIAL
T1 sequence (P01375 77-233 limits assumed): as the sequence (P51742 77-233 limits assumed) above, with K2R, E21Q, S30N, T44R, I49V, D53E, F83I, T109A, L138R, N140D counted along it

| binding result (human TNF) | Binder | binding result [1] | binding result [2] |
| --- | --- | --- | --- |
| binds | caninised anti-huTNF MAb 148 (SEQ ID NO:18 plus SEQ ID NO:19) (antibody, V domains shown, Expressed in CHO cells and purified by Protein A chromatography; also called ca148-HCB) VH: EVQLVESGGGVVQPGGSLRLSCAASGFIFSSYAMRWVRQAPGKGLEWVAFMSYDGSNKKYADSVKGRFTISRDNSKNTLYLQMNSLRAEDTAVYYCARDRGIAAGGNYYYYGMDVWGQGTSVTVSS VL: EIVMTQSPASLSLSPGEKATISCRASQSVYSYLAWYQQKPGQAPRLLIYDASNRATGVPSRFSGSGSGTDFTLTISSLEPEDVAVYYCQQPSNWPPFTFGPGTKVDIKR | no binding |  |
| binds | caninised anti-TNF monoclonal antibody (SEQ ID NO:3 light chain plus SEQ ID NO:5 heavy chain), based on D2E7 (antibody, V domains shown, canine IgG-B heavy chain, kappa light chain; also called ca-HCB+ca-kLC; caninised (Ca) D2E7 based MAb) VH: not shown VL: DIVMTQSPASLSLSQEEKVTITCRASQGIRNYLAWYQQKPGQAPKLLIYAASTLQSGVPSRFSGSGSGTDFTLTISSLEPEDVAVYYCQRYNRAPYTFGQGTKVEIKR |  | binds |

Source: patent US20140294815A1 (NVIP, published 2014)
